Assay [1] deals with recombinant human Pol δ holoenzyme (heterotetramer p125/p50/p68/p12) (human) (UniProt P28340).
For assay [2], the target named is recombinant human Pol δ core+p12 trimer (p125/p50/p12) (human) (UniProt P28340).
Assay [3] deals with recombinant human Pol δ core dimer (p125/p50) (human) (UniProt P28340).
In assay [4] the target is recombinant human Pol δ core+p68 trimer (p125/p50/p68) (human) (UniProt P28340).
Chain of recombinant human Pol δ core+p68 trimer (p125/p50/p68) (human) (P28340 whole entry, stated change not applied, chain 1 of 3): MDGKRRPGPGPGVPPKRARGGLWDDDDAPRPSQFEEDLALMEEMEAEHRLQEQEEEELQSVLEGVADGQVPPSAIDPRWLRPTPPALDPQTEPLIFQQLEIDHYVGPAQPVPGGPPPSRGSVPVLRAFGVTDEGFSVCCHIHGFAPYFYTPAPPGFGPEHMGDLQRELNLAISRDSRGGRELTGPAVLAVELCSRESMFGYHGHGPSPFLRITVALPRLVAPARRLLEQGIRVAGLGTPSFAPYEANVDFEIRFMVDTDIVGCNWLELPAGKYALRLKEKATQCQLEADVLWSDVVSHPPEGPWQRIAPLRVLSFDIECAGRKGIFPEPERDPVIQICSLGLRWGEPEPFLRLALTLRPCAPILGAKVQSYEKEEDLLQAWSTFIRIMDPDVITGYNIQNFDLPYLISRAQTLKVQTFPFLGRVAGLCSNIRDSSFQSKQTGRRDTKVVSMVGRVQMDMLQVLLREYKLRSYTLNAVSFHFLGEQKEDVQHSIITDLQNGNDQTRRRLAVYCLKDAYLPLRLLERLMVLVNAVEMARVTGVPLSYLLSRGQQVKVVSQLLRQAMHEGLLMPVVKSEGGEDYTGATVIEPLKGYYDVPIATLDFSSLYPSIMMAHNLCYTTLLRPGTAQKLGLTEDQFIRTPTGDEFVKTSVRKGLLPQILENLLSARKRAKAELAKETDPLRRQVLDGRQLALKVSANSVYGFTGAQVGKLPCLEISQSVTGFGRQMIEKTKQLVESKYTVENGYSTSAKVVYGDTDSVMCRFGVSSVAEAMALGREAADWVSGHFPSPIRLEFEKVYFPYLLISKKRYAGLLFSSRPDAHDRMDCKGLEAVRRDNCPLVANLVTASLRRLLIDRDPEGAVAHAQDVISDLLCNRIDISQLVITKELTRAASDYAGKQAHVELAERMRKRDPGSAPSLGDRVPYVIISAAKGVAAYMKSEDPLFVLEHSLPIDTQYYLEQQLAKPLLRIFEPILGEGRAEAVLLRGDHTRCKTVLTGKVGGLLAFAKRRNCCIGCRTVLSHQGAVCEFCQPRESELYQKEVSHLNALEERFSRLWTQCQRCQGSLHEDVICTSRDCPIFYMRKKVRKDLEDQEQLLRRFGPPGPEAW
Chain of recombinant human Pol δ core+p68 trimer (p125/p50/p68) (human) (P49005 whole entry, stated change not applied, chain 2 of 3, further chain): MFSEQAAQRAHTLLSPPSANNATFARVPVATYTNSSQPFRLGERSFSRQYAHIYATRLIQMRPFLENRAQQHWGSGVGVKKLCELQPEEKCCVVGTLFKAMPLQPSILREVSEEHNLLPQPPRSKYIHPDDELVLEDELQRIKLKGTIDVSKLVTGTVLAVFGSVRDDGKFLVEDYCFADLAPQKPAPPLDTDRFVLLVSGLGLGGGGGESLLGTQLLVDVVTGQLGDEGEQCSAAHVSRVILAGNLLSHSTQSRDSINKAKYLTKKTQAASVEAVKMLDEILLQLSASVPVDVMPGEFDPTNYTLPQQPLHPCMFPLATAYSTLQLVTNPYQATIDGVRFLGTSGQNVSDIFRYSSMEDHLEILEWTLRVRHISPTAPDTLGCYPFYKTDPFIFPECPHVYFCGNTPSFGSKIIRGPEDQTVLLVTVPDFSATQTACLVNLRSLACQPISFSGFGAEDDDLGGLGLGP
Chain of recombinant human Pol δ core+p68 trimer (p125/p50/p68) (human) (Q15054 whole entry, stated change not applied, chain 3 of 3, further chain): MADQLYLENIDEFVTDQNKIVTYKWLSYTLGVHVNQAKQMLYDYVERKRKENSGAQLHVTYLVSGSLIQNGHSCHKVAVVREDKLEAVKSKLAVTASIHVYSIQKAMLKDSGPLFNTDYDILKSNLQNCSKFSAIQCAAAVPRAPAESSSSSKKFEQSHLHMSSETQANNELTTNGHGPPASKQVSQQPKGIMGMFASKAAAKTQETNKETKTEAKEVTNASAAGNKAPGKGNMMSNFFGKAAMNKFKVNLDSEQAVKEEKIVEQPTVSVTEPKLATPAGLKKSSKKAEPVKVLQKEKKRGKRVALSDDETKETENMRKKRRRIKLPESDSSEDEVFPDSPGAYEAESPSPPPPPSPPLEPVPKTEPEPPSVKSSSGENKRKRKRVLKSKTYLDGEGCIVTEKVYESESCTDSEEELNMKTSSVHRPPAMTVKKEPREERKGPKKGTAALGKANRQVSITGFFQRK

Chain of recombinant human PCNA (Proliferating Cell Nuclear Antigen) (P12004 whole entry): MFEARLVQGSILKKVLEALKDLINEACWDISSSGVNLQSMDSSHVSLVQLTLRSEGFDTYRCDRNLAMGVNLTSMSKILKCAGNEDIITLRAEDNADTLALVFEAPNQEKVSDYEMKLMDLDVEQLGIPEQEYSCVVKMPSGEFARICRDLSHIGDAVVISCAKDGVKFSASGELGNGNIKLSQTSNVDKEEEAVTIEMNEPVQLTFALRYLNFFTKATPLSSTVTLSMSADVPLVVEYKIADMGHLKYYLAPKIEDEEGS
Chain of recombinant human Pol δ core+p12 trimer (p125/p50/p12) (human) (P28340 whole entry, stated change not applied, chain 1 of 3): as the sequence (P28340 whole entry, stated change not applied, chain 1 of 3) above
Chain of recombinant human Pol δ core+p12 trimer (p125/p50/p12) (human) (P49005 whole entry, stated change not applied, chain 2 of 3, further chain): as the sequence (P49005 whole entry, stated change not applied, chain 2 of 3, further chain) above
Chain of recombinant human Pol δ core+p12 trimer (p125/p50/p12) (human) (Q9HCU8 whole entry, stated change not applied, chain 3 of 3, further chain): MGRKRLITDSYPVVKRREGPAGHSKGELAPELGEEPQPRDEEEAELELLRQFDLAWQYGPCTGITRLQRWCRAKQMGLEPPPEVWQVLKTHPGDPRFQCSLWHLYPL
Chain of recombinant human Pol δ holoenzyme (heterotetramer p125/p50/p68/p12) (human) (P28340 whole entry, stated change not applied, chain 1 of 4): as the sequence (P28340 whole entry, stated change not applied, chain 1 of 3) above
Chain of recombinant human Pol δ holoenzyme (heterotetramer p125/p50/p68/p12) (human) (P49005 whole entry, stated change not applied, chain 2 of 4, further chain): as the sequence (P49005 whole entry, stated change not applied, chain 2 of 3, further chain) above
Chain of recombinant human Pol δ holoenzyme (heterotetramer p125/p50/p68/p12) (human) (Q15054 whole entry, stated change not applied, chain 3 of 4, further chain): as the sequence (Q15054 whole entry, stated change not applied, chain 3 of 3, further chain) above
Chain of recombinant human Pol δ holoenzyme (heterotetramer p125/p50/p68/p12) (human) (Q9HCU8 whole entry, stated change not applied, chain 4 of 4, further chain): as the sequence (Q9HCU8 whole entry, stated change not applied, chain 3 of 3, further chain) above
Chain of recombinant human Pol δ core dimer (p125/p50) (human) (P28340 whole entry, stated change not applied, chain 1 of 2): as the sequence (P28340 whole entry, stated change not applied, chain 1 of 3) above
Chain of recombinant human Pol δ core dimer (p125/p50) (human) (P49005 whole entry, stated change not applied, chain 2 of 2, further chain): as the sequence (P49005 whole entry, stated change not applied, chain 2 of 3, further chain) above

For “recombinant human PCNA (Proliferating Cell Nuclear Antigen) (from UniProt P12004 1-261) (natural protein)”, the apparent Kd for PCNA: PCNA concentration for half-maximal stimulation of polymerase activity on poly(dA)/oligo(dT), hyperbolic fit in assay [1] worked out at 7.1 nM trimer; in assay [2], 8.7 nM trimer; in assay [3] it was 73 nM trimer; in assay [4] it was 9.3 nM trimer.

Source of the values: paper PMC3377666.
